1 molecule from PMC6137059 can be followed below.

As usually defined, the Kd is the free concentration of one partner at which half of the binding sites on the other are occupied at equilibrium, for simple one-to-one binding.

In the series the target is TcpK (Clostridium perfringens (plasmid pCW3), UniProt Q1PLI2 1-102). The experiment in a line: fluorescence polarization; SPR: 10 mM HEPES pH 7.4, 200 mM NaCl, 3 mM EDTA, 0.05% Tween 20, 20 C; […]. Conditions: protein: recombinant; tags: N-terminal His6-TEV, cleaved; chain copies: 2; label: 5' Alexa488; blunt. On the technique in general: In fluorescence polarisation assays a small probe gives low polarisation when free and higher when bound to something large.

B1: oriTmin23 Alexa488 (dsDNA)
DNA 1: AAGGAACTTTACAGGGAACTTTA
DNA 2: TAAAGTTCCCTGTAAAGTTCCTT
Take B1: the equilibrium dissociation constant (Kd) turned out to be 590 nM.
